Measured values taken from publication PMC10682670.

How the values were obtained:
[1] = target: COMP-Ang1 fusion protein (encoded by mRNA-76), secreted by HeLa cells (not stated ('humanized' fusion protein) | human); experiment: non-reducing PAGE with immunoblot; concentrated serum-free supernatant of mRNA-transfected HeLa cells, non-reducing PAGE, Western blot with Ang1-specific antibody
[2] = target: CMP-Ang1 fusion protein (encoded by mRNA-59) (human); experiment: as above

| Substance | stoichiometry N [1] | stoichiometry N [2] |
| --- | --- | --- |
| COMP-Ang1 fusion protein (encoded by mRNA-76), secreted by HeLa cells (ligand) | 5 |  |
| CMP-Ang1 fusion protein (encoded by mRNA-59) (ligand) |  | 2 |
